{"source": "paper PMC9207808", "about": "(ACS Chemical Biology, 2022)", "key": {"[1]": {"target": "Doc1-122–His6 (DocSTm toxin) (Salmonella typhimurium)", "assay": "SPR; Biacore S200; Doc-His6 captured on a Series S NTA chip (200-400 RU); peptide as analyte, single-cycle kinetics, six concentrations (3-fold dilutions), 30 uL/min; 22 C; 10 mM HEPES, 500 mM NaCl, 50 uM EDTA, 0.005% TWEEN 20, pH 8.0; kinetic 1:1 fit"}, "[2]": {"target": "Doc1-122–His6 (DocSTm toxin) (Salmonella typhimurium)", "assay": "SPR; Biacore S200; Doc-His6 captured on a Series S NTA chip (200-400 RU); peptide as analyte, single-cycle kinetics, six concentrations (3-fold dilutions), 30 uL/min; 22 C; 10 mM HEPES, 500 mM NaCl, 50 uM EDTA, 0.005% TWEEN 20, pH 8.0; kinetic 1:1 fit", "remark": "listed apart in the source"}, "[3]": {"target": "Doc1-122–His6 (DocSTm toxin) (Salmonella typhimurium)", "assay": "SPR; Biacore S200; Doc-His6 captured on a Series S NTA chip (200-400 RU); peptide as analyte, single-cycle kinetics, six concentrations (3-fold dilutions), 30 uL/min; 22 C; 10 mM HEPES, 500 mM NaCl, 50 uM EDTA, 0.005% TWEEN 20, pH 8.0; kinetic 1:1 fit", "remark": "listed apart in the source"}, "[4]": {"target": "Doc1-122–His6 (DocSTm toxin) (Salmonella typhimurium)", "assay": "SPR; Biacore S200; Doc-His6 captured on a Series S NTA chip (200-400 RU); peptide as analyte, single-cycle kinetics, six concentrations (3-fold dilutions), 30 uL/min; 22 C; 10 mM HEPES, 500 mM NaCl, 50 uM EDTA, 0.005% TWEEN 20, pH 8.0; kinetic 1:1 fit", "remark": "listed apart in the source"}, "[5]": {"target": "Doc toxin of Salmonella enterica serovar Typhimurium (DocSTm) (Salmonella enterica serovar Typhimurium)", "assay": "SPR; DocSTm immobilised on a Series S NTA chip (150 nM, 200-400 RU); analytes in single-cycle kinetics, typically six concentrations, kinetic 1:1 fit; 22 °C; 10 mM HEPES, 500 mM NaCl, 50 μM EDTA, 0.005% TWEEN 20, pH 8.0"}, "[6]": {"target": "T1, Doc (Salmonella Typhimurium)", "T1 chain": "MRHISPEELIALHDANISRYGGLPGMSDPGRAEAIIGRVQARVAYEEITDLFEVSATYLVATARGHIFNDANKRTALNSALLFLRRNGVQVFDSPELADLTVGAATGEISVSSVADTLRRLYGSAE", "assay": "SPR"}, "[7]": {"target": "Doc toxin of Salmonella enterica serovar Typhimurium (DocSTm) (Salmonella enterica serovar Typhimurium, UniProt A0A1C9CWN5 1-126)", "assay": "SPR; DocSTm immobilised on a Series S NTA chip (150 nM, 200-400 RU); analytes in single-cycle kinetics, typically six concentrations, kinetic 1:1 fit; 22 °C; 10 mM HEPES, 500 mM NaCl, 50 μM EDTA, 0.005% TWEEN 20, pH 8.0", "details": "both partners purified"}, "[8]": {"target": "Doc toxin of Salmonella enterica serovar Typhimurium (DocSTm) (Salmonella enterica serovar Typhimurium)", "assay": "SPR; DocSTm immobilised on a Series S NTA chip; analytes in multicycle kinetics, kinetic and/or steady-state 1:1 fit (steady-state for peptide 14); 22 °C; 10 mM HEPES, 500 mM NaCl, 50 μM EDTA, 0.005% TWEEN 20, pH 8.0"}}, "note": "“And” between values parts separate entries of the source, which are not always exact repeats. Equal values may be shown once. Read-outs that look alike come from different tables or passages of the source. No end group written: not given here."}
{"molecule": "peptide 17 (PhdSTm52-73-L70A)", "values": [{"measurement": "koff", "setting": "[1]", "value": 0.00597, "unit": "s⁻¹"}, {"measurement": "kon", "setting": "[1]", "value": "3.84e+06", "unit": "M⁻¹ s⁻¹"}, {"measurement": "Kd", "setting": "[2]", "value": "2.1 nM and 1.98 nM and 1.02 nM"}, {"measurement": "koff", "setting": "[2]", "value": "0.00602 s⁻¹ and 0.00634 s⁻¹ and 0.00554 s⁻¹"}, {"measurement": "kon", "setting": "[2]", "value": "2.87e+06 M⁻¹ s⁻¹ and 3.2e+06 M⁻¹ s⁻¹ and 5.44e+06 M⁻¹ s⁻¹"}]}
{"molecule": "peptide 18 (PhdSTm52-73-D72A)", "values": [{"measurement": "Kd", "setting": "[1]", "value": 0.033, "unit": "nM"}, {"measurement": "koff", "setting": "[1]", "value": "8.4e-05", "unit": "s⁻¹"}, {"measurement": "kon", "setting": "[1]", "value": "2.51e+06", "unit": "M⁻¹ s⁻¹"}, {"measurement": "Kd", "setting": "[3]", "value": "0.0532 nM and 0.0189 nM and 0.0385 nM"}, {"measurement": "koff", "setting": "[3]", "value": "7.43e-05 s⁻¹ and 5.67e-05 s⁻¹ and 0.00012 s⁻¹"}, {"measurement": "kon", "setting": "[3]", "value": "1.4e+06 M⁻¹ s⁻¹ and 3.01e+06 M⁻¹ s⁻¹ and 3.12e+06 M⁻¹ s⁻¹"}]}
{"molecule": "peptide 20 (PhdSTm52-71)", "values": [{"measurement": "Kd", "setting": "[1]", "value": 0.428, "unit": "nM"}, {"measurement": "koff", "setting": "[1]", "value": 0.000393, "unit": "s⁻¹"}, {"measurement": "kon", "setting": "[1]", "value": 917000, "unit": "M⁻¹ s⁻¹"}, {"measurement": "Kd", "setting": "[4]", "value": "0.447 nM and 0.414 nM and 0.424 nM"}, {"measurement": "koff", "setting": "[4]", "value": "0.000413 s⁻¹ and 0.000387 s⁻¹ and 0.000378 s⁻¹"}, {"measurement": "kon", "setting": "[4]", "value": "925000 M⁻¹ s⁻¹ and 934000 M⁻¹ s⁻¹ and 891000 M⁻¹ s⁻¹"}]}
{"molecule": "peptide 22 (Phd 55-71)", "values": [{"measurement": "Kd", "setting": "[5]", "value": 0.347, "unit": "nM"}]}
{"molecule": "peptide 23 (Phd 56-70)", "values": [{"measurement": "Kd", "setting": "[5]", "value": 1.98, "unit": "nM"}]}
{"molecule": "FASLFDTLDSTNKEL", "note": "[Phd peptide 23 56-70]", "values": [{"measurement": "Kd", "setting": "[6]", "value": 1.98, "unit": "nM"}]}
{"molecule": "Ac-WMDDEFAAIMAVHGNELRELA-OH", "note": "[peptide 20 (C-terminally truncated analogue of peptide 1)]", "values": [{"measurement": "fold loss in Kd against peptide 1", "setting": "[7]", "value": "~5", "unit": "fold"}]}
{"molecule": "AALDAEFASLFDTLDSTNKELVNR", "note": "[Phd peptide 1 neutralization domain]", "values": [{"measurement": "Kd", "setting": "[6]", "value": 0.073, "unit": "nM"}]}
{"molecule": "Ac-WMDDEFAAAMAVHGNELRELADK", "note": "[peptide 7 (Phd 52-73 I59A)]", "values": [{"measurement": "Kd", "setting": "[8]", "value": 20, "unit": "nM"}]}
{"molecule": "Ac-WMDDEFAAIMAVAGNELRELADK", "note": "[peptide 10 (Phd 52-73 H63A)]", "values": [{"measurement": "Kd", "setting": "[8]", "value": 20, "unit": "nM"}]}
{"molecule": "EFASLFDTLDSTNKELV", "note": "[Phd peptide 22 55-71]", "values": [{"measurement": "Kd", "setting": "[6]", "value": 0.347, "unit": "nM"}]}
{"molecule": "Ac-WMDDEFAAIMAVHGNEARELADK", "note": "[peptide 14 (Phd 52-73 L67A)]", "values": [{"measurement": "Kd", "setting": "[8]", "value": 20, "unit": "nM"}]}
{"molecule": "Ac-EFAAIMAVHGNELRELADK-OH", "note": "[peptide 21 (N-terminally truncated analogue of peptide 1)]", "values": [{"measurement": "fold loss in Kd against peptide 1", "setting": "[7]", "value": "~5", "unit": "fold"}]}
